From the supplement of paper PMC12636428

Each sequence was assayed on Saccharomyces cerevisiae (assay: transcriptional activation domain activity (GFP:mCherry ratio, weighted mean of sorted bins, harmonized to initial dataset scale) (arbitrary fluorescence ratio units); higher = stronger transcriptional activation). Conditions: beta-estradiol 1 µM; induction time 4 h.
Summary of the method: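 For this assay, yeast diploids with a GFP reporter carried barcoded protein tiles at URA3, each fused to an estradiol-inducible synthetic transcription factor. Induction was a 1:5 dilution into SC with 1 uM beta-estradiol for 4 hours at 30 °C, followed by sorting into 8 bins by GFP:mCherry ratio and barcode sequencing. Tiles under 50 reads were dropped, and activation activity was calculated as the read-weighted mean of bin median fluorescence, averaged across barcodes and linearly mapped onto the initial dataset scale.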

Sequence	transcriptional activation domain activity
GGGNRGRWPGDDSSDSSSSENERRGRRERRRRHRRRSASPDARRSGKGDAPKQ	< 6570
MYVWYSLSFLFPPTSPSLFLFLFYLFIYSLFYFFFYFSPYFFSFFLSSYTLHY	63000
VKGAGKGKGKDDGKKNSMVLLLLCSLLSVNFMLGNYAPQLWILLLVPMSLAAP	45000
ESEDEGRDTTHDSDNEGDGHDANHGSENEGEGHDTTHDSKIEGAGRDAIRGSH	8090
IFLACCAVFPGLGNLGFTLMQYRLGQRSFLSAAAENLTWVPFFFFFFGGLSVH	78400
PKDGAKEEKKSSKSRGEEKRSRSDRKEREREEKSSKGSASDKAEQPPKATASS	6730
KADEDAQTGEKRKAEEPAADTNGEKSKDEEPASKKAKTDEEEKTAGKAKKPGR	24000
CHVLRMYTPYWILFPNDLIQLLKVIPALRCLHILSKGIRIIRWKPLPYLLWED	51800
AAEEEEAEAQAEKEEAEAEEAEAEEELEEAQAEEAEAEEAEAEEAEAVRGAMG	< 6570
MVCFQITFLYSAFFPLFSFSFLLNIFPTISIFPHLLQILAAFFVLFYAFFSTM	55100
TQLIELNVPMGKVGMVVDNSSDKLEIEDIVVYWSLRSRPVWLVYVRAFLKSII	56200
VAALLATSLCMIYPLWSIFSIVQVIYMFANICLLVWVIPKGLHFACYYLLGVS	37400
VMFHGKQMKNFLIDINSFTNQQQQAQDNPSFLPLDIEQSSYDLSEDAMSYPII	115000
FKEGVSLTVLDELYRWQKYAYGCDEIIFNPIFTWWKKGPISLQLRNFVWSIAP	57100
TLYWSYGMYIMYNGPHWLNTSYYWIDYPHILISRQTKTYYLMQLAFWVQQVYT	41600
MDGDERPRKRARLACTNCNARRVKCDVTDRQPCRNCEIAHAVCETRESKRGKH	9400
TRCLLMYMYFLQDIGIYIYCILILNLFRKVRRLIPFPSRVLMVLHVITICIFT	74300
FYMQLCVNIFLASGFIYILYCAWGAIISDVDIEASKHMSEVLVDIALCAKQYN	22900
MEFPTPTCFLSFFSFFFHIVFVAYCVAYFSLSRFLFVPSFFFLFLLSYFRLLQ	67500
RPQSKERGGRREDGAGTDEGDSSTHPSCSSHVGRQEGVFQTVQCKHYWVVKWE	49900
YMCTCAWSVIWAQQLYTRGPLLQFIAKHTNYAGKPSMTFNQIVLLWVLYQIQG	49800

Sequence	transcriptional activation domain activity
MSSSLPSESPCQEPTKRRRKVKTGCRTCKIRRVKCDEGRPACHRCVSTGRVCD	54000
PMGGDPLLDQAFYGADDFFFPPEGCDNNMLYPQTATSWNVLPPQAMQPAPTYV	63900
SEIALSSSTHSLRLYGKSVGGGKVAGMVRMAYSAKSGVTVKVSVRSEEGGLAG	37500
HDLLVDSLRLVMELLKAPGGLSVHALTAHLNILSFTVRLLDLCLDMALETPHH	84900
MIRDTPKSPSHPPSARSSSSRASSTTSCLSSTSTPAARTSSSSTTARTPVPRP	28600
YGALGDNTVTLRRPDDSDIVVLFDDMVVHAWIKMLIVAKLICCVILRRTAALG	46500
QTVNFGWSDLPHDVYTHLSSDFENPFYFDGIFPTLVDYSPLIVSPPNFLTLEP	138000
CFKHIGLYWAERGITLGRLEQLVGCHSLFSALERQASLRAWSILGMLLTIVWF	61400
EEAAAPAASKGQGTAAAASGRSRNRRRGAGEDGKGKAERGGEAMTSAPSPAKP	13400
LLTGSSALLLPVIWPRLSASLRFPVVLLLPLPYIFTYLCVYPPTPFSPHITPT	59300
HYNALNGRWKVFRNEKDEDSIRVVAGMVWWGKILVVTCVEKGVFQIRLFSSIN	7550
ILQHILLWSLMVMTGCCPGSFFITSYYPNEWLKFLDGYMIQPYVTTFMIRGFL	56900
YILSSLVTYKGIINHNDQSILILGIPKLHRLLMENVHVLHLLINSCITTLASC	44000
MSTVPRLRLHLHLHLHLHLRLHLHLQLSTPKPTEDGAEHGTERGTERGTERGT	49700
AATTDGEASANEGALVPAGEGAAEGEAKKPRQRKPRVARPPRPAGEEPTGEPS	45500
PDVEQMVLHFYLQLCYEFFDRCPTLFHASLGLINPSTSCCCGLLFLLFFVFLY	72800
HFSLLWPPHCSLWCTLFFLLIGHFVFILCLCYSVFFSFPSFLLIVSCFLLCFP	37800
PRQMCRLYRAGYGLFYNQFCAYIDIAFCMMLCQWNLDILETLRYRLEFGRYLA	71100
AEEGEEGRRKKGASKARSESGRSRIGGKRKEGEGEREGDEGRKKKRKKNKEKE	32800
DERRLVWPSRLTFMKVVFLLNRYVPFAGSFGMMYVLTLVNPVTQSDFCKHGFL	54900
EESAEEKQEEEDSADAKKQKTNGDAEEIEEAGENDEEKAEESTSKKKGRPAKN	25100

Sequence	transcriptional activation domain activity
RDCQWCAQLVRRTAIVAFNATNAVLNANMYVFVCIFLIAWLVVWKTWLWSVAL	38300
MAPFSPFVYFFLFLVHNSWLFCFLLVCFPFFSILVFLSFCPFLSPFTSRFSFL	56600
PTCALLSLQPVLPSPFGPPSSLLPVTSLFYLSPPSLLCILALSSFLLILPLLF	38800
TLKALCRFITWLSIEHIMGANLIYKLKAWLKMYRNLVIQCYIEIANLDIPTSV	56900
MCCLLLFSPSFLCFFFAFFFYFTFYMTHLSDFSFLQRAIGLTYVFIWLIYRAH	38100
GAVMPILMQFFFIMAWNGICNGMHLYAAYNLRTHVLARLFWSILWPLLSSLCS	59900
MVKLLLTRLPYFCVLVYCVFRYPIATFCLDIFLFFKQLCQNAHAIQWPQISWL	77200
AMPTFDLVMWYREFQRILLEMRAYVIYKATVLPRWSNPSYDRPFPVLPVRGVI	48600
NLPSLIGIQLLSSMGEYVMLWLIFVGTVIYYAGWVTLVIDGFCRFLNIRCLVI	56900
PLAGNSPGLPPEEVRNNSENASHNNETGPIETELAQTISNEFWTAYNLGWEEL	56400
LVYLARSLFFSLLFKRLYILYFLEVCIWHIFGFFFYLITLCANLVMPLLLCSV	57600
IVMGKGTVHLCYLILSFFMYLLYSLLSHTQNILLDPLHTLFVSTFCLLHHSVF	56200
SNGTSLFVTCWVALNVFFHFYRLPLRWDFFFVFADRAGLIFIVNLPLLYLLAA	59500
IAIQVMNRVLFFKAFKNVTRYSCAYKLCLVFFFFYIVINGKNFYVIEYAHLSM	49300
AYLTFCIYLCFWSYLNLRLAGLFFFSLFIILFPPRVSWLHYFSFLFYSGVFCF	51000
VAVARTKARKAVVGIEKVEIAAEVEATPEIVTAARTRERKAVVGIESAETVAE	45800
CPACLSVCTYYLRCLLCSAALYTMGLLAFWWRFLFWHDCILLWSLSLFPFTLS	87400
QRMGSMVQRVQSTCRKCRGEGKILLEKDRCKKCAGRGIVKASKKLEVHVDKGM	20000
EGAASGTEEAPKPKKKKKQQPRKSKPRIDAASGTEAEPNAATESEAPAAAGAA	16600
SFTSKLNNPQFLGSLDLEILEELEKLISAQEFSRNFTEDVDESLQSEIDLMNY	146000
PNGLMDPVLSTTNVSATSSNDNSANNSISSPEYTFGQFSMDSPHRTDATNTPI	23000

Sequence	transcriptional activation domain activity
TIITNRGTIPNGLGRDIWTLQPDMITSFAYWFYHMEYAYFLNLVLLKASILFF	57800
MPNEESKPVDQAAQEAEASKAVEELKLDEGSASKGKSSKKDKIKNAISSISSS	26800
MHSVTAALRSLSLAGRRSLSTSAPRWEQAAAEAVASTSTWTPQTQRTGVLARK	14900
MGYCFFLYIYIPFTLLFSNTCRLVGVFLSFYICMIGYSLLWLPNLWLAFFLIN	37700
MVINGLPWLVALSIPFTFLASLTHSSWHPLLLRSHSTWRLYWWLVLVLRMHMT	41500
MASPASSTEQQRAAKRKSHRKSRNGCFQCKQRHSKVSQSSTLLAAAASNLSRT	27100
SGSAAGPSSNAAEKETKEKSGQRRRGRRGGGGGGGGGGGDKNAATGTSQGASG	35200
MVEGCLLHFQFSFPPFFFCFFFGHLGGFVNFCDSLIFKVLRALGLVMNVFTII	70500
KQPEPRTRSASPKRAASPAKPVAAEKPAAVAAAAEKPAEKVAEKAAEKPAPAV	31400
ILFFCLVANSDKLHMIIFAVVPIRCVFPVFFLIFEVIINCWLPLVWHLLYNLT	43800
KGKQRSEGGGGNRKGGRPPRRIDEDAADSSSNDAGAEGGAKGSEPTKAAKAAS	33400
KTGEDRGRGRGRGRGKRKGEGRGGEGKTGEEGEEEEEEKGERREREREREKKK	23400
PDDHKLLKALVFFLWVFDGLHIALICHAFYLITVTNFGNVLALLTIPRTLPIA	58400
MVFFFFFFHSVEFHFFLWYLSFFRFFFVFLLFPWLDWIGRAGIGLELLLSLFI	47400
ICIIPFVNGFLCEPILPLFFFCSFLILSESWFIFLHWFGSWSLVIYFGSWCLF	79700
ALCRVAARALDTVRMLSTKVRLMLVHAFRRLEPLDVAFQSRSAVPMMSLGIQL	66600
MGVLLFGFWVCCCTKLLFCHYCFFFFLFLHFFFLATVLYIVNCCMLLLVLLLG	67700
FGESCAGVLPVTMYDNRLNRHSEHHGKNVYEKMVSGRYLGELVRWILVELLDR	54500
KHRSSINTVLVVGGDDKVVKQAGDALKGKLGVKGGGKGPRWSGKFIGVWKAAR	50100
SRAKVCGWADVFMVIAMHCLLGWSVTMTLYALRGGTRHIWDLEPLGVDNLIKA	35200
